1 substance from paper PMC8685454 can be followed below.

Assay [1] concerns the target plant produced deglycosylated Receptor Binding Domain of Spike protein of SARS-CoV-2 (SARS-CoV-2) (UniProt P0DTC2). Kind of assay: ELISA. Background: In an ELISA, binding on a coated surface is turned into a signal by an enzyme label.
Assay [2] deals with commercial Spike protein, active Recombinant 2019-nCoV Spike Protein, RBD, His Tag (SARS-CoV-2) (UniProt P0DTC2). Kind of assay: ELISA.

As to “plant produced Endo H in vivo deglycosylated soluble (truncated) human ACE2 (receptor)”, the values for the Kd in assay [1] and in assay [2] were 1.29 nM and 4.68 nM, respectively.
